Test results: patent publication US9481870B2, “Nucleic acid encoding a polypeptide having aminotransferase activity, vectors and host cells comprising the nucleic acid” (KANEKA CORPORATION, priority 2010, dated 2016)

Legend:
[1] = Optimum temperature of transamination activity; format: biochemical
Experimental: (§1) The transamination activity of purified TPM was examined under the following activity assay conditions. Specifically, purified TPM was added to a substrate solution with the composition given below to a total amount of 1 mL. After 5 minutes of reaction at 30° C., 0.05 mL of 6N hydrochloric acid was added to stop the reaction. HPLC analysis was conducted under the following conditions.
Transamination activity was determined at 10° C., 20° C., 30° C., 40° C., 50° C., 60° C., and 70° C. under the same conditions above.

[2] = Optimum pH of transamination activity; format: biochemical
Experimental: The optimum pH for transamination is determined by the above activity assay A using combinations of the following buffers and pHs. […] When activity levels are different depending on buffer types, the activity level higher than the other is employed even if the pHs are the same. • pH4.0, 4.5, 5.0, 5.5: 0.1 M sodium acetate buffer • pH6.0, 6.5, 7.0, 7.5, 8.0: 0.1 M potassium phosphate buffer • pH7.5, 8.0, 8.5, 9.0: 0.1M Tris-hydrochloric acid buffer (Optimum Temperature)
as §1
Transamination activity was determined in a manner similar to the above at pHs ranging from 4.0 to 9.0 and then the optimum pH of TPM was examined.
The following buffers were used according to pH for determination.
[Buffer] • pH4.0, 4.5, 5.0, or 5.5: 0.1 M sodium acetate buffer • pH6.0, 6.5, 7.0, 7.5, or 8.0: 0.1 M potassium phosphate buffer • pH7.5, 8.0, 8.5, or 9.0: 0.1 M tris-hydrochloric acid buffer • (3) Optimum Temperature: […]

[3] = Resistance to water-soluble organic solvent (residual activity); format: physicochemical; conditions: 2 hours, 30° C.
Experimental: Resistance to a water-soluble organic solvent can be determined by the following method. Specifically, first, 800 uL of each water-soluble organic solvent is added to 200 uL of a 0.1 M aqueous potassium phosphate solution (pH7.5) supplemented with 0.5 mM PLP containing a purified polypeptide, so that the solvent is brought into contact with the solution at 30° C. for 2 hours. Subsequently, the resultant is diluted with a 0.1 M aqueous potassium phosphate solution supplemented with 0.5 mM PLP. Activity in the dilute solution is compared with the same in a purified polypeptide solution before addition of the solvent using the above activity assay A.
• (5) Resistance to water-soluble organic solvent: 800 μL of 1-propanol, 2-propanol, or acetone was added to 200 μL of 0.1 M potassium phosphate buffer (pH7.5) containing 0.5 mM pyridoxal phosphate to which purified TPM had been added, followed by 2 hours of treatment at 30° C. After treatment, 0.1 M potassium phosphate buffer (pH7.5) containing 0.5 mM pyridoxal phosphate was diluted 20-fold, and then the activity of the diluted solution was determined under conditions similar to those above.
The resistance of commercially available Vibrio fluvialis-derived ω-Transaminase VF (Julich-Chemicals) to a water-soluble organic solvent was examined by a method similar to that for resistance to a water-soluble organic solvent in Example 9 (5).

[4] = Thermal stability (residual activity after 30 minutes heating); format: physicochemical; conditions: for Residual activity: pH7.5, before heat treatment = 100
Experimental: The thermal stability of the polypeptide is determined as follows.
The purified TPM was reacted for 30 minutes in 0.1 M potassium phosphate buffer (pH7.5) containing 0.5 mM pyridoxal phosphate at 30° C., 40° C., 50° C., 60° C., 70° C., and 80° C., and then activity assay was performed in a similar manner. As a result, 90% or more of the activity before heat treatment remained after treatment at 30° C. to 60° C.

[5] = Activity of purified TPM for 1-benzyl-3-pyrrolidinone and optical purity of product; format: biochemical; conditions: 2 hours
Experimental: The above properties can be determined by the following method. Specifically, a purified polypeptide is added to a substrate solution having the following composition so that it has a final concentration ranging from 0.1 mg/mL to 1 mg/mL for reaction at 30° C. Furthermore, the reaction is continued until 0.6 mM or more 1-benzyl-3-aminopyrrolidine (as determined by the following quantitative analysis) is generated. After the completion of the reaction, the optical purity of the 1-benzyl-3-aminopyrrolidine generated in the reaction solution is analyzed by HPLC under the following conditions. […]
[High Performance Liquid Chromatography (HPLC) Analysis Conditions] • <Quantitative A> • Column: Finepak SIL C18-T (JASCO Corporation) • Eluent: distilled water 1260 mL/acetonitrile 740 mL/KH2 PO4 10 g/SDS 2.88 g (pH3.6) • Flow rate: 1 mL/minute • Detection: 254 nm • Column temperature: 40° C. […]
A reaction solution was treated with an appropriate amount of sodium carbonate so that it became basic, derivatized with dinitrobenzoyl chloride, and then analyzed under the following conditions. • Column: Chiral pak IA (Daicel Corporation) • Eluent: hexane/ethanol/diethylamine/acetonitrile=800/200/1/5 (volume ratio) • Flow rate: 0.8 mL/minute • Detection: 254 nm

B1: TPM: purified aminotransferase polypeptide from Pseudomonas sp. MV37, about 50,000 molecular weight, amino acid sequence SEQ ID NO: 1 (protein, listed as Pseudomonas sp.)
chain: MNHLEKMLELDRNHLIHPHLPKSEFSRTIFARGKGCKLWDTEGREYLDATGGLWLAQIGHGREEIAEVAARQMKQLEYFTCFWDFSNERAIELAEKLARLAPGDLEMSFFTSGGSEGDDAAIKTARYYHSQRGEPKRTWILSRNNAYHGLAYGGGTATGFPELRDGMGPGLPHVAYLTQPNAYRHYYFDGQNPTDFCVSELEKMIASIGAENIAAMIAEPIMGVGGMVPPPVDYWPRMSQVLKKNGILLIFDEVVSAFGRSGHWFAAEKYGVIPDIMVTAKGISSGYIPLGAVIMSRDVADTVREGHGYPLGYTYSGHPVACAVALENLRILEDEDLINRSNHMGTYIAEQLTALRDNPCVGEVRQAGMGIGIELVTDKESRQPLPDAALVIPDIIREETGVIVRISNATNLCMSPPLTMSREEADRAVEAVCSVLSRVKPDGKV
[1]; 10° C. to 70° C. tested
  optimum temperature: 60 °C
[1]; Reaction temperature 10° C., activity at 60° C. = 100
  Relative activity: 8
[1]; Reaction temperature 20° C., activity at 60° C. = 100
  Relative activity: 16
[1]; Reaction temperature 30° C., activity at 60° C. = 100
  Relative activity: 33
[1]; Reaction temperature 40° C., activity at 60° C. = 100
  Relative activity: 49
[1]; Reaction temperature 50° C., activity at 60° C. = 100
  Relative activity: 77
[1]; Reaction temperature 60° C., designated as 100
  Relative activity: 100
[1]; Reaction temperature 70° C., activity at 60° C. = 100
  Relative activity: 68
[2]; 0.1M Potassium phosphate, pH 6.0, activity at pH7 = 100
  Relative activity: 86
[2]; 0.1M Potassium phosphate, pH 6.5, activity at pH7 = 100
  Relative activity: 94
[2]; 0.1M Potassium phosphate, pH 7.0, designated as 100
  Relative activity: 100
[2]; 0.1M Potassium phosphate, pH 7.5, activity at pH7 = 100
  Relative activity: 88
[2]; 0.1M Potassium phosphate, pH 8.0, activity at pH7 = 100
  Relative activity: 67
[2]; 0.1M Sodium acetate, pH 4.0, activity at pH7 = 100
  Relative activity: 7
[2]; 0.1M Sodium acetate, pH 4.5, activity at pH7 = 100
  Relative activity: 25
[2]; 0.1M Sodium acetate, pH 5.0, activity at pH7 = 100
  Relative activity: 57
[2]; 0.1M Sodium acetate, pH 5.5, activity at pH7 = 100
  Relative activity: 71
[2]; 0.1M Tris-hydrochloric acid, pH 7.5, activity at pH7 = 100
  Relative activity: 96
[2]; 0.1M Tris-hydrochloric acid, pH 8.0, activity at pH7 = 100
  Relative activity: 95
[2]; 0.1M Tris-hydrochloric acid, pH 8.5, activity at pH7 = 100
  Relative activity: 85
[2]; 0.1M Tris-hydrochloric acid, pH 9.0, activity at pH7 = 100
  Relative activity: 67
[3]; 1-Propanol 80% v/v
  Residual activity rate (%): 97%
[3]; 2-Propanol 80% v/v
  Residual activity rate (%): 100%
[3]; 80% v/v solvent
  stability against 1-propanol, 2-propanol, and acetone: extremely stable
[3]; Acetone 80% v/v
  Residual activity rate (%): 99%
[4]; after treatment at 30° C. to 60° C.
  activity remaining relative to before heat treatment: ≥ 90%
[4]; treatment 30° C.
  Residual activity: 108
[4]; treatment 40° C.
  Residual activity: 115
[4]; treatment 50° C.
  Residual activity: 120
[4]; treatment 60° C.
  Residual activity: 100
[4]; treatment 70° C.
  Residual activity: 12
[5]; (S)-1-phenethylamine 85.6 mM, 1-benzyl-3-pyrrolidinone 57.1 mM, pH 7.0, 30° C.
  conversion rate: 90%
[5]; generated (S)-1-benzyl-3-aminopyrrolidine, 30° C.
  optical purity: 98.0 % e.e.
